Data from article PMC6616571.

Test system: wild-type DNA polymerase beta (human)
Test: EMSA
Details: 10 nM DNA, 5 mM MgCl2; approximately 50% of DNA bound at 32 nM enzyme; EMSA: 50 mM Tris-HCl pH 7.5, 100 mM KCl, 5 mM MgCl2, 1 mM DTT, 10% glycerol, 100 ug/ml BSA, room temperature 5 min; 10% native PAGE at 4 C

1-nt gapped 34-bp DNA
K half: 32 nM
